# Reference: the supplement of paper PMC9233669
# Variants at the floor of the assay were thinned out.
# Key:
# biotinyl-Ile-oxazolone = assay: self-aminoacylation, catalytic enhancement (BIO) (fold over background); higher = more active; k-Seq, kA / k0A0; sequences stand for … in GGGAAUGGAUCCACAUCUACGAAUUC…UUCACUGCAGACUUGACGAAGCUG
# How it was run: (§1)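 Mutagenized RNA pools with a 21-nt variable region (0.43 μM) were reacted with each biotinyl-aminoacyl-oxazolone at 2–1250 μM for 90 minutes at room temperature, in 50 μL HEPES/NaCl/KCl/MgCl2/CaCl2 buffer containing 5% acetonitrile at pH 6.9–7.0. RNA captured on streptavidin was quantified by triplicate qPCR and by Illumina sequencing. The fraction reacted for each sequence was fit to a pseudo-first-order model with bootstrapping, and catalytic enhancement is the median kA divided by the uncatalyzed rate, taken as the low-activity peak of a bimodal Gaussian fit.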
# biotinyl-Leu-oxazolone = assay: self-aminoacylation, catalytic enhancement (BLO) (fold over background); higher = more active; k-Seq, kA / k0A0; sequences stand for … in GGGAAUGGAUCCACAUCUACGAAUUC…UUCACUGCAGACUUGACGAAGCUG
# How it was run: as §1
# biotinyl-Trp-oxazolone = assay: self-aminoacylation, catalytic enhancement (BWO) (fold over background); higher = more active; k-Seq, kA / k0A0; sequences stand for … in GGGAAUGGAUCCACAUCUACGAAUUC…UUCACUGCAGACUUGACGAAGCUG
# How it was run: as §1
# biotinyl-Met-oxazolone = assay: self-aminoacylation, catalytic enhancement (BMO) (fold over background); higher = more active; k-Seq, kA / k0A0; sequences stand for … in GGGAAUGGAUCCACAUCUACGAAUUC…UUCACUGCAGACUUGACGAAGCUG
# How it was run: as §1
# biotinyl-Val-oxazolone = assay: self-aminoacylation, catalytic enhancement (BVO) (fold over background); higher = more active; k-Seq, kA / k0A0; sequences stand for … in GGGAAUGGAUCCACAUCUACGAAUUC…UUCACUGCAGACUUGACGAAGCUG
# How it was run: as §1
# biotinyl-Phe-oxazolone = assay: self-aminoacylation, catalytic enhancement (BFO) (fold over background); higher = more active; k-Seq, kA / k0A0; sequences stand for … in GGGAAUGGAUCCACAUCUACGAAUUC…UUCACUGCAGACUUGACGAAGCUG
# How it was run: as §1
Sequence,self-aminoacylation (biotinyl-Ile-oxazolone),self-aminoacylation (biotinyl-Leu-oxazolone),self-aminoacylation (biotinyl-Trp-oxazolone),self-aminoacylation (biotinyl-Met-oxazolone),self-aminoacylation (biotinyl-Val-oxazolone),self-aminoacylation (biotinyl-Phe-oxazolone)
CCACAGUUCAAUCAAUCGGUC [Fam1B.1 aminoacylation ribozyme variant],0.806,0.881,2.08,0.905,0.96,2.95
AUCACCCUGGUCACCGAGUGA [Fam2.1 aminoacylation ribozyme variant],6.34,15.4,13.2,17.5,5.92,96.6
CUACUUGAAACGAUCGGUCUG [Fam1A.1 aminoacylation ribozyme variant],0.968,1.24,0.726,1.11,1.05,0.916
CUACUCCAAACAAACGGUCUG [Fam1A.1 aminoacylation ribozyme variant],0.816,0.71,0.918,0.531,0.981,1.09
AAGUUUGCUACUAGUCGGAAG [Fam3.1 aminoacylation ribozyme variant],0.835,0.518,0.866,0.712,0.749,0.777
AAGUGUGCUAAUUGUCGCAAG [Fam3.1 aminoacylation ribozyme variant],1.5,1.51,2.65,1.45,1.49,1.56
AUUCAAAUAGGUCAUCGGGUG [Fam2.2 aminoacylation ribozyme variant],3.9,7.01,5.77,5.54,3.38,40.1
GCACACUUCAAGCAAUCGGUU [Fam1B.1 aminoacylation ribozyme variant],3.38,3.33,6.83,2.66,2.86,4.75
CUACUUCAAUCGAUCGGUCUG [Fam1A.1 aminoacylation ribozyme variant],0.687,0.634,0.977,0.707,0.754,0.776
CCACACUGCCAGCAAUCGGUC [Fam1B.1 aminoacylation ribozyme variant],1.5,1.47,1.39,1.36,1.58,2.23
CCACUCUUCAAACAAUCGGUC [Fam1B.1 aminoacylation ribozyme variant],1.23,2.04,41.8,1.44,1.3,78.3
AUGCACCUAGGUUAUCGGGUG [Fam2.2 aminoacylation ribozyme variant],3.4,4.46,4.81,3.37,3.11,32.7
CCGCACUUCGAGCAAUCGGUC [Fam1B.1 aminoacylation ribozyme variant],1.22,1.46,2.26,1.46,2.27,5.29
AUUCACCUAGGCCAUCGGGUU [Fam2.2 aminoacylation ribozyme variant],1.34,1.03,0.76,1.52,1.31,5.49
CUCCUUCAAACAAUCGGUCGG [Fam1A.1 aminoacylation ribozyme variant],1.32,2.14,24.2,1.96,1.33,62.4
AAGUUCGCUAAUAGUCACAAG [Fam3.1 aminoacylation ribozyme variant],1.59,1.6,1.64,1.56,1.25,3.01
AUUUCCCUGGUCAUCGAGUGU [Fam2.1 aminoacylation ribozyme variant],6.35,14.6,12.4,14.9,7.71,26.8
AUUACCCUUGGCAUCGAGUGA [Fam2.1 aminoacylation ribozyme variant],2.75,6.72,8.88,6,3.39,31.7
CCAAACUUGAAGCAAUCGGUC [Fam1B.1 aminoacylation ribozyme variant],0.898,0.828,0.693,0.87,0.996,0.596
AUUACCCUGUUGAUCGAGUGA [Fam2.1 aminoacylation ribozyme variant],5.62,13,16.8,12.5,5.71,78.3
CCACGCUUCAAGCAGUCGGUC [Fam1B.1 aminoacylation ribozyme variant],0.755,0.887,0.91,1.03,1.33,1
AUUCACCGAGAUCAUCGGGUG [Fam2.2 aminoacylation ribozyme variant],3.88,8.53,7.09,6.77,4.27,49.8
CCACACUUCAACCCAUCGGUC [Fam1B.1 aminoacylation ribozyme variant],1.34,1.24,1.04,1.11,1.72,0.791
AUUGACCUAUGUCAUCGGGUG [Fam2.2 aminoacylation ribozyme variant],3.81,7.74,5.17,5.68,3.64,28.4
AAGUUGGCUAAUAUUCGCAAG [Fam3.1 aminoacylation ribozyme variant],2.32,2.11,3.02,1.85,2.09,2.07
AUUACCCUGGUCAUCGCAUGA [Fam2.1 aminoacylation ribozyme variant],2.01,3.5,3.77,3.2,1.75,13.8

Sequence,self-aminoacylation (biotinyl-Ile-oxazolone),self-aminoacylation (biotinyl-Leu-oxazolone),self-aminoacylation (biotinyl-Trp-oxazolone),self-aminoacylation (biotinyl-Met-oxazolone),self-aminoacylation (biotinyl-Val-oxazolone),self-aminoacylation (biotinyl-Phe-oxazolone)
AUUACCCUGGCCAUCAAGUGA [Fam2.1 aminoacylation ribozyme variant],0.983,0.968,1.67,1.07,1.01,1.1
AUACACCUAGGUCAUCUGGUG [Fam2.2 aminoacylation ribozyme variant],1.4,1.68,1.41,1.56,1.23,4.68
ACACACUUCAAGCAAUCGGUG [Fam1B.1 aminoacylation ribozyme variant],5.89,10.5,9.81,7.83,5.84,56.7
CUACUUCAAACGAUCGGCCUG [Fam1A.1 aminoacylation ribozyme variant],1.55,1.96,2.08,1.33,1.66,1.59
AAGUCUGCUAAUAGUCGCAGG [Fam3.1 aminoacylation ribozyme variant],1.7,2.25,1.97,2.07,1.44,5.31
AUUACCCCGGUCAUCGGGUGA [Fam2.1 aminoacylation ribozyme variant],5.57,15.9,12.7,14.4,7.32,103
CCACAUUUCAAGCACUCGGUC [Fam1B.1 aminoacylation ribozyme variant],1.25,1.16,0.97,1.15,1.37,0.933
AAGUUUGCUAGUAGUCCCAAG [Fam3.1 aminoacylation ribozyme variant],1.01,0.873,1.68,0.75,1.14,1.65
AAGUUUGCUAUUAGUCGCAAG [Fam3.1 aminoacylation ribozyme variant],0.848,0.76,0.826,0.814,0.823,1.08
AUUACCCUGGUCUUCGACUGA [Fam2.1 aminoacylation ribozyme variant],0.992,0.717,0.675,0.832,0.737,0.68
CUACUUCUAACAAGCGGUCUG [Fam1A.1 aminoacylation ribozyme variant],0.801,0.658,0.64,0.708,0.694,0.708
AUUACCCUGCUCAUCGAGAGA [Fam2.1 aminoacylation ribozyme variant],0.834,0.702,0.698,0.805,0.975,0.77
CCACAAUUCAAGCAUUCGGUC [Fam1B.1 aminoacylation ribozyme variant],1.96,1.94,1.36,1.68,1.85,1.36
AUUCACCUGGGACAUCGGGUG [Fam2.2 aminoacylation ribozyme variant],4.15,6.71,5.11,7.06,4.3,55.4
CCACAAUUCAAGCAAUCGGUC [Fam1B.1 aminoacylation ribozyme variant],1.17,0.973,1.69,0.936,1.16,2.8
CCACACAUCAAGCAACCGGUC [Fam1B.1 aminoacylation ribozyme variant],1.4,0.817,1.14,1.21,1.13,1.29
AUUACCAUGGUCCUCGAGUGA [Fam2.1 aminoacylation ribozyme variant],2.48,5.83,4.82,4.88,2.68,29.3
AUUACCCUGGUAAUCGAGUCA [Fam2.1 aminoacylation ribozyme variant],0.825,0.783,0.473,0.902,0.838,0.569
CCACGCUUCAAGCGAUCGGUC [Fam1B.1 aminoacylation ribozyme variant],0.888,1.05,3.3,1.14,1.2,2.6
CCAAUUCAAACAAUCGGUCUG [Fam1A.1 aminoacylation ribozyme variant],1.11,1.16,5.22,1.02,1.11,6.78
CCACACAUCAAGCAAUAGGUC [Fam1B.1 aminoacylation ribozyme variant],0.864,0.574,0.736,0.698,1.02,1.52
AUUCAGCUAGGUCACCGGGUG [Fam2.2 aminoacylation ribozyme variant],4.69,6.32,7.07,7.17,4.32,51.6
AUUACCCUGGACAUAGAGUGA [Fam2.1 aminoacylation ribozyme variant],6.45,15,15.6,15.5,6.12,100
AUUCGCCUAGGCCAUCGGGUG [Fam2.2 aminoacylation ribozyme variant],3.15,5.27,4.7,4.46,4.16,35.5
CUACUUCAUACAAUCGGGCUG [Fam1A.1 aminoacylation ribozyme variant],1.11,0.877,0.764,0.744,0.994,0.688
